B1: BK polyomavirus major capsid protein VP1 (native infectious virion, Dunlop strain) (natural protein)
chain: MAPTKRKGECPGAAPKKPKEPVQVPKLLIKGGVEVLEVKTGVDAITEVECFLNPEMGDPDENLRGFSLKLSAENDFSSDSPERKMLPCYSTARIPLPNLNEDLTCGNLLMWEAVTVQTEVIGITSMLNLHAGSQKVHEHGGGKPIQGSNFHFFAVGGEPLEMQGVLMNYRSKYPDGTITPKNPTAQSQVMNTDHKAYLDKNNAYPVECWVPDPSRNENARYFGTFTGGENVPPVLHVTNTATTVLLDEQGVGPLCKADSLYVSAADICGLFTNSSGTQQWRGLARYFKIRLRKRSVKNPYPISFLLSDLINRRTQRVDGQPMYGMESQVEEVRVFDGTERLPGDPDMIRYIDKQGQLQTKML
notes: Major capsid protein VP1 of BK polyomavirus, Dunlop strain, as assembled in the native virion; Five copies form one penton; 72 pentons form the T = 7d capsid, with VP1 in six quasi-equivalent conformations; PDB 5FUA is a homology model of BK VP1 (built on SV40, PDB 1SVA) fitted into the virion map; also called BK VP1; BKPyV VP1; source: Vero cells transfected/infected with the BK Dunlop genome; …

Key:
[1] = molecular target: BK polyomavirus major capsid protein VP1 (VP1-only virus-like particle) (BK polyomavirus) (UniProt P03088); assay: cryo-EM structure; purified VP1-only VLPs in buffer A supplemented with 50 mM CaCl2, vitrified; FEI Polara, K2 summit in super-resolution mode; icosahedral single-particle reconstruction in RELION, 9.1 Å
[2] = molecular target: B1; assay: cryo-EM structure; purified native BK virions in buffer A (10 mM HEPES pH 7.9, 1 mM CaCl2, 1 mM MgCl2, 5 mM KCl), vitrified; FEI Tecnai-F20, 200 kV, K2-Summit; icosahedral single-particle reconstruction in RELION, 7.6 Å; conditions: both partners purified
[3] = molecular target: the molecule itself; assay: as above

Row | Molecule | binding result [2] | also measured
1 | BK polyomavirus major capsid protein VP1 (VP1-only virus-like particle) (from UniProt P03088 1-362) (natural protein) | – | stoichiometry N [1]: 5
2 | BK polyomavirus minor capsid protein VP3 (natural protein, Minor capsid protein VP3 of BK polyomavirus, Dunlop strain; printed mass 26.7 kDa; expressed from the same open reading frame as VP2 but without VP2's extended N terminus; also called VP2/3; VP2/VP3; source: Vero cells transfected/infected with the BK Dunlop genome; in purified virions (CsCl gradient, 1-MDa centrifugal concentrator)) MALELFNPDEYYDILFPGVNTFVNNIQYLDPRHWGPSLFATISQALWHVIRDDIPSITSQELQRRTERFFRDSLARFLEETTWTIVNAPINFYNYIQQYYSDLSPIRPSMVRQVAEREGTRVHFGHTYSIDDADSIEEVTQRMDLRNQQSVHSGEFIEKTIAPGGANQRTAPQWMLPLLLGLYGTVTPALEAYEDGPNQKKRRVSRGSSQKAKGTRASAKTTNKRRSRSSRS | binds | –
3 | BK polyomavirus minor capsid protein VP2 (natural protein, Minor capsid protein VP2 of BK polyomavirus, Dunlop strain; printed mass 38.3 kDa; same open reading frame as VP3, with an extended N terminus; The introduction says the extended N terminus of VP2 holds a site for myristoylation; also called VP2/3; VP2/VP3; source: Vero cells transfected/infected with the BK Dunlop genome; in purified virions (CsCl gradient, 1-MDa centrifugal concentrator)) MGAALALLGDLVASVSEAAAATGFSVAEIAAGEAAAAIEVQIASLATVEGITSTSEAIAAIGLTPQTYAVIAGAPGAIAGFAALIQTVSGISSLAQVGYRFFSDWDHKVSTVGLYQQSGMALELFNPDEYYDILFPGVNTFVNNIQYLDPRHWGPSLFATISQALWHVIRDDIPSITSQELQRRTERFFRDSLARFLEETTWTIVNAPINFYNYIQQYYSDLSPIRPSMVRQVAEREGTRVHFGHTYSIDDADSIEEVTQRMDLRNQQSVHSGEFIEKTIAPGGANQRTAPQWMLPLLLGLYGTVTPALEAYEDGPNQKKRRVSRGSSQKAKGTRASAKTTNKRRSRSSRS | binds | –
4 | B1 | – | stoichiometry N [3]: 5
